This note sets out measurements from patent EP2832747A1 (Université Catholique de Louvain, dated 2015).

The experiment has as its target T1, shGARP-TGFβ (human).
T1 construct: also called immobilized shGARP-TGFβ
Nature of the experiment: BIACOR analysis (SPR), immobilized shGARP-TGFβ.

T1 sequence (Q14392 20-627): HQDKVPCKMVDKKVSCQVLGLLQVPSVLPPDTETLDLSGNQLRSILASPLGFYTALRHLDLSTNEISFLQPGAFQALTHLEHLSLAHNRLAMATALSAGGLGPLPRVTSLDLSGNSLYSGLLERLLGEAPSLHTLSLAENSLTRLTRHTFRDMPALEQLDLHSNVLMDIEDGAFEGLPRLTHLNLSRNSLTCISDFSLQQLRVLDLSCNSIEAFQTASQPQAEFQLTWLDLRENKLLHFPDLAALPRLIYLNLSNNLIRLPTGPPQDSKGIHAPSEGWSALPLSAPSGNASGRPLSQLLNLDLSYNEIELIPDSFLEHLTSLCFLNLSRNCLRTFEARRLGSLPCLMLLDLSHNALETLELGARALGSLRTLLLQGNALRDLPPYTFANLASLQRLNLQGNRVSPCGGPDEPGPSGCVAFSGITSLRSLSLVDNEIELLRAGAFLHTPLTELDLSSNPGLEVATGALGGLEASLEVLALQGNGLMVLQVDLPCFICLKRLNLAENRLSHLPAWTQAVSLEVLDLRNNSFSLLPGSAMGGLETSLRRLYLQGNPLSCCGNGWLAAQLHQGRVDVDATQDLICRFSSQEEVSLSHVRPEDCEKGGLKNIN

B1: MHGARP8 (antibody, V domains shown)
VH: QVQLKESGPGLVAPSQSLSITCTVSGFSLTGYGINWVRQPPGKGLEWLGMIWSDGSTDYNSVLTSRLRISKDNSNSQVFLKMNSLQVDDTARYYCARDRNYYDYDGAMDYWGQGTSVTVSS
VL: DIQVTQSSSYLSVSLGDRVTITCKASDHIKNWLAWYQQKPGIAPRLLVSGATSLEAGVPSRFSGSGSGKNFTLSITSLQTEDVATYYCQQYWSTPWTFGGGTTLEIR
notes: Mouse monoclonal from hybridoma MHGARP8 (LMBP 10246CB); used biotinylated in flow cytometry; also called MGARPB; antibody of hybridoma LMBP 10246CB
B1: the dissociation constant Kd turned out to be 200 pM.
